Results as given in patent publication US20210187091A1 (published 2021).
Like-named read-outs stand apart in the source and are kept apart here.

B1: DH270.5 (antibody, V domains shown)
VH: QVQLVQSGAEVKNPGASVKVSCAPSGYTFTDFYIHWVRLAPGQGLEWLGWMNPKTGRTNQGQNFQGRVIMTRDTSIGTAYMELRSLTSDDTAVYYCVTGAWISDYYDSSYYPNFDHWGQGTLVTVSS
VL: LPVLTQPASVSGSPGQSITISCTGTIYDVGKFDLVSWYQHHPGKAPKYLIYEVKKWPSGVSHRFSGSKSGNTASLTISGLQVEDEADYYCCSFGGSAAVVCGGGTKVTVL
B2: DH270.3 (antibody, V domains shown)
VH: QVQLVQSGAEMKNPGASVKVSCAASGYTFTDFYIHWVRLAPGQGLEWMGWMNPKTGRTNNAQNFQGRVIMTRDTSIGTAYMELRRLTSDDTAVYYCVTGGWISPYYDSSYYPNFDHWGQGTLVTVSS
VL: QSALTQPASVSGSPGQSITISCTGTSYDVGKFDLVSWYQQHPGKAPKYMIYEVNKWPSGVSHRFSGSKSGNTASLTISGLQAEDEADYYCCSFGGSATVVCGGGTKVTVL
B3: DH270.4 (antibody, V domains shown)
VH: EVQLVQSGAEMKNPGASVKVSCAASGYGFTDFYIHWVRLAPGHGLQWMGWMNPKTGRTNNAQDFQGRVILTRDTSIGTAYMELRRLTSDDTAVYYCVTGGWISPYYDSSYYPNFDHWGQGTLITVSS
VL: QSALTQPASVSGSPGQSITISCTGTSYDVAKFDLVSWFQQHPGKAPKYMIYEVNKWPSGVSHRFSGSKSGNTASLTISGLQAEDEADYYCCSFGGSATVVCGGGTKVTVL
B4: DH270.IA1 (antibody, V domains shown)
VH: QVQLVQSGAEVKKPGASVKVSCKASGYTFTDYYIHWVRQAPGQGLEWMGWINPNTGRTNYAQKFQGRVIMTRDTSISTAYMELSRLRSDDTAVYYCARGGWIGLYYDSSGYPNFDYWGQGTLVTVSS
VL: QSALTQPASVSGSPGQSITISCTGTSYDVGSYNLVSWYQQHPGKAPKLMIYEVSKRPSGVSNRFSGSKSGNTASLTISGLQAEDEADYYCCSYAGSSTVIFGGGTKLTVL
B5: DH270.2 (antibody, V domains shown)
VH: QVQLVQSGAEMKKPGASVRVSCKASGYTFTDYYIHWVRQAPGQGPEWMGWINPSTGRTNSPQKFQGRVIMTRDTSISTAYMDLNRLTSDDTAMYYCTTGGWIGLYSDTSGYPNFDYWGQGTLVTVSS
VL: QSALTQPASVSGSPGQSITISCTGTNYDVGSYNLVSWYQQHPGKVPKYIIYEVNKRPSGVSNRFSGSKSGNTASLTISGLQAEDEADYYCCSYAGSSIIFFGGGTKLTVI

Tests used:
Man9-V3 glycopeptide [1] = target: T1, Man9-V3 glycopeptide (Man9GlcNAc2 at N301 and at N332; disulfide bridge between C296 and C331 (cyclized); biotin tag); experiment: BLI
T1 peptide: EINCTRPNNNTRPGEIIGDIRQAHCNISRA

Man9-V3 glycopeptide [2] = target: T1, Man9-V3 glycopeptide; experiment: BLI

Binder	Kd (Man9-V3 glycopeptide [1]) [µM]	Kd (Man9-V3 glycopeptide [2]) [µM]
B1	0.281	–
B2	0.195	–
B3	0.346	–
B4	–	3.29
B5	4.77	–
